The values that follow are results of earlier work, collected in PMC4664829.

Read-outs that look alike come from different tables or passages of the source.

Data set [1] has as its target T1, Glu14 (UniProt position 14, GAILAEVIGTT). The data set can be described thus: kinetics. To be noted: TPP+ association with substrate-free EmrE.
The target in data set [2] is T1, Glu14. To be noted: proton release from EmrE.

A word on the pKa: it is the pH at which an ionisable group is half protonated. With “EmrE (small multidrug resistance transporter) (Escherichia coli)”, the figures for the pKa in the data set with Glu14 [1] and in the data set with Glu14 [2] were 7.3 and 8.4, respectively.
